Results taken from the supplement of paper PMC7125110.
± gives the standard error. For some assays here: This sample holds only a part of the variants without activity.

B1: glmS ribozyme (parent)
chain: AUAAAAGCGCCAGAACUACAGAAAUGUAGUUGACGAGGAGGAGGUUUAUCGAAUUUUCGGCGGAUGCCUCCAAA

What was measured:
Conditions in all cases: with glucosamine-6-phosphate
glucosamine-6-phosphate [1] = variants of: B1; experiment: kcat; higher = faster cleavage; RNA array
Outline: (§1)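 kobs was derived by fitting per-tile medians to one- or two-exponential decays after normalising signals to baseline and to non-cleaving reference variants. Those signals came from barcoded ribozyme variants transcribed in situ by E. coli RNA polymerase on sequenced MiSeq chips, followed through a hybridised Cy3 probe at 37 °C and imaged over ~14 h. Glucosamine-6-phosphate (40 μM to 10 mM) in HEPES/KCl/Mg(OAc)2 buffer was flowed in. Weighted Michaelis–Menten fits across concentrations then gave kcat and KM.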

glucosamine-6-phosphate [2] = variants of: B1; experiment: self-cleavage kobs at 640 uM GlcN6P; higher = faster cleavage; RNA array
Outline: as §1

glucosamine-6-phosphate [3] = variants of: B1; experiment: self-cleavage kobs at 2500 uM GlcN6P; higher = faster cleavage; RNA array
Outline: as §1

glucosamine-6-phosphate [4] = variants of: B1; experiment: self-cleavage kobs at 10000 uM GlcN6P; higher = faster cleavage; RNA array
Outline: as §1

glucosamine-6-phosphate [5] = variants of: B1; experiment: KM; higher = weaker cofactor use; RNA array
Outline: as §1

glucosamine-6-phosphate [6] = variants of: B1; experiment: self-cleavage kobs at 160 uM GlcN6P; higher = faster cleavage; RNA array
Outline: as §1

glucosamine-6-phosphate [7] = variants of: B1; experiment: self-cleavage kobs at 40 uM GlcN6P; higher = faster cleavage; RNA array
Outline: as §1

Row | Variant | kcat (glucosamine-6-phosphate [1]) | self-cleavage kobs at 640 uM GlcN6P (glucosamine-6-phosphate [2]) | self-cleavage kobs at 2500 uM GlcN6P (glucosamine-6-phosphate [3]) | self-cleavage kobs at 10000 uM GlcN6P (glucosamine-6-phosphate [4]) | KM (glucosamine-6-phosphate [5]) | self-cleavage kobs at 160 uM GlcN6P (glucosamine-6-phosphate [6]) | self-cleavage kobs at 40 uM GlcN6P (glucosamine-6-phosphate [7])
1 | AUAAAAGCGCCAGAACUACAGAAAUGUAGUUGACGAGGAGGAGGUUUAUCGAAUUUCCGGCGGAUGUCUCCAAA | 6.51e-05 ± 8.2e-06 s⁻¹ | 3.88e-05 ± 8.6e-06 s⁻¹ | 3.71e-05 ± 7.6e-06 s⁻¹ | 6.33e-05 ± 5.1e-06 s⁻¹ | – | – | –
2 | AUAAAAGCGCUAGAACUACAGAAAUGUAGUUAACGAGGAGGAGGUUUAUCGAAUUUUCGGCGGAUGCCUCCAAA | 0.000453 ± 3.3e-05 s⁻¹ | 0.00014 ± 3.1e-05 s⁻¹ | 0.000239 ± 5.9e-05 s⁻¹ | 0.000404 ± 4.4e-05 s⁻¹ | 1520 ± 290 µM | 5.04e-05 ± 2.1e-05 s⁻¹ | –
3 | AUAAAAGCGCCAGAACUACAGAAAUGUAGUUUACGAGGAGGAGGUUUAUCGAAUUUUCGGCGGAUGGCUCCAAA | 0.000119 ± 1.3e-05 s⁻¹ | 4.87e-05 ± 1.6e-05 s⁻¹ | 6.69e-05 ± 1.2e-05 s⁻¹ | 0.000107 ± 1.2e-05 s⁻¹ | 1520 ± 570 µM | – | –
4 | AUAAAAGCGCCAGAACUACAGAAAUGUAGUUGACGAGGAGGAGGUUUAUCGAAUUUUCGGCGGAUGCCUGGAAA | 3.62e-05 ± 7e-06 s⁻¹ | 5.98e-05 ± 1.4e-05 s⁻¹ | 3.62e-05 ± 9.7e-06 s⁻¹ | 2.86e-05 ± 7.6e-06 s⁻¹ | – | 3.85e-05 ± 1.4e-05 s⁻¹ | –
5 | AUAAAAGCGCCAGUACUACAGAAAUGUAGUUGACGAGGAGGAGGUUUAUCGAAUUUUCGGCGGAUGCCUCUAAA | 0.00742 ± 0.0032 s⁻¹ | 0.00138 ± 0.00019 s⁻¹ | 0.00252 ± 0.00058 s⁻¹ | 0.00786 ± 0.00099 s⁻¹ | – | 0.000492 ± 8.1e-05 s⁻¹ | 0.000206 ± 3.1e-05 s⁻¹
6 | AUAAAAGCGCCAGAACUACAGAAAUGUAGUAGACGAGGAGGAGGUUUAUCGAAUAUUCGGCGGAUGCCUCCAAA | 0.0251 ± 0.0036 s⁻¹ | 0.00452 ± 0.0014 s⁻¹ | 0.00953 ± 0.0034 s⁻¹ | 0.0182 ± 0.0035 s⁻¹ | 3810 ± 790 µM | 0.000953 ± 0.00022 s⁻¹ | –
7 | AUAAAUGCGCCAGAACUACAGAAAUGUAGUUAACGAGGAGGAGGUUUAUCGAAUUUUCGGCGGAUGCCUCCAAA | < 1e-05 s⁻¹ | – | – | – | – | < 1e-05 s⁻¹ | < 1e-05 s⁻¹
8 | AUAAAAGCGCCAGAACUACAGAAAUGUAAUUGACGAGGAGGAGGUUUAUCGAAUUUUCGGCGGAUGACUCCAAA | 0.00104 ± 0.00036 s⁻¹ | 0.000205 ± 3.9e-05 s⁻¹ | 0.0005 ± 9.3e-05 s⁻¹ | 0.00099 ± 0.00013 s⁻¹ | – | 0.000165 ± 3.2e-05 s⁻¹ | 2.96e-05 ± 8.8e-06 s⁻¹
9 | AUAAAAGCGCCAGGACUACAGAAAUGUAGUUGACGAGGAGGAGGUUUAUCGAAUUUUCGGCGUAUGCCUCCAAA | < 1e-05 s⁻¹ | < 1e-05 s⁻¹ | < 1e-05 s⁻¹ | – | – | < 1e-05 s⁻¹ | < 1e-05 s⁻¹
10 | AUAAAAGCGCCAGAACUACAGAAAUGUAGUUGACGAGGAGGAGGUUGAUCGAAUUUUCGGGGGAUGCCUCCAAA | 1.1e-05 ± 2e-06 s⁻¹ | – | – | – | – | – | –
11 | AUAAAAGCGCCUGAACUACAGAAAUGUAGUCGACGAGGAGGAGGUUGAUCGAAUUUUCGGCGGAUGCCUCCAAA | 0.00222 ± 0.00076 s⁻¹ | 0.000212 ± 4.5e-05 s⁻¹ | 0.000645 ± 0.00015 s⁻¹ | 0.00156 ± 0.00026 s⁻¹ | 5110 ± 2400 µM | 8.69e-05 ± 1.9e-05 s⁻¹ | 4.15e-05 ± 1.7e-05 s⁻¹
12 | AUAAAAGCGCCGGAACUACAGAAAUGUAGUUGACGAGGAGGAGGUUUAUCGAAUUUUCGGCGGAUGCAUCCAAA | 2.58e-05 ± 7.3e-06 s⁻¹ | – | 3.36e-05 ± 9e-06 s⁻¹ | 1.95e-05 ± 7.6e-06 s⁻¹ | – | – | –
13 | AUAAAAGCGCCAGAAAUACAGAAAUGUAGUUGACGAGGAGGAGGUUUAUCGAGUUUUCGGCGGAUGCCUCCAAA | 0.00159 ± 0.00057 s⁻¹ | 0.000374 ± 9.2e-05 s⁻¹ | 0.000777 ± 0.00017 s⁻¹ | 0.0017 ± 0.00029 s⁻¹ | – | 0.000134 ± 3.8e-05 s⁻¹ | 7.66e-05 ± 1.7e-05 s⁻¹
14 | AUAAAAGCGCUAGAACUACAGAAAUGUAGUUGACGAGGAGGAGGUUUAUCGAAUUUUCGGCGGAUGACUCCAAA | 0.000277 ± 2.6e-05 s⁻¹ | 0.000121 ± 1.3e-05 s⁻¹ | 0.000256 ± 4e-05 s⁻¹ | 0.000242 ± 3e-05 s⁻¹ | 801 ± 180 µM | 4.36e-05 ± 1.8e-05 s⁻¹ | –
15 | AUAAAAGCGCCAAAAGUACAGAAAUGUAGUUGACGAGGAGGAGGUUUAUCGAAUUUUCGGCGGAUGCCUCCAAA | 0.000217 ± 1.4e-05 s⁻¹ | 5.02e-05 ± 1.2e-05 s⁻¹ | 0.000131 ± 2.4e-05 s⁻¹ | 0.000178 ± 2.5e-05 s⁻¹ | 1970 ± 290 µM | – | –
